Measured values: article PMC9482650, “Quantitative fragmentomics allow affinity mapping of interactomes” (Nature Communications, 2022)

T1: APBA3_1, O96018
T1 sequence (O96018 389-490, limits assumed, looked up): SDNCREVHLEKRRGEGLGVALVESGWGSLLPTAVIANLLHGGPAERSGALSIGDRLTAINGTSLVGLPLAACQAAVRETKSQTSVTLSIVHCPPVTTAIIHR

T2: DFNB31_3, Q9P202
T2 sequence (Q9P202 811-907, limits assumed, looked up): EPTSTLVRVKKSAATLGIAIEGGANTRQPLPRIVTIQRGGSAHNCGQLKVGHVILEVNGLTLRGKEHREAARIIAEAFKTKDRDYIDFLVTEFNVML

T3: DLG3_2, Q92796
T3 sequence (Q92796 221-321, limits assumed, looked up): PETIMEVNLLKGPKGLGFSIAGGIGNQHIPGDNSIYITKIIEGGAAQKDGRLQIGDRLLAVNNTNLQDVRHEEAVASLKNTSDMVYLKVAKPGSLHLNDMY

T4: LIN7A, O14910
T4 sequence (O14910 103-200, limits assumed, looked up): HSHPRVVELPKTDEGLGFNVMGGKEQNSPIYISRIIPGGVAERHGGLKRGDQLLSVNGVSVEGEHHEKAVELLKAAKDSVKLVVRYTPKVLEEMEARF

T5: NHERF3_1, Q5T2W1
T5 sequence (Q5T2W1 4-100, limits assumed, looked up): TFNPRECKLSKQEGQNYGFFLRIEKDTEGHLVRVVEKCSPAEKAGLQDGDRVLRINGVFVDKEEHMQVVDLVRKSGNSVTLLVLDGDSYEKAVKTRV

T6: PARD3B_1, Q8TEW8
T6 sequence (Q8TEW8 196-299, limits assumed, looked up): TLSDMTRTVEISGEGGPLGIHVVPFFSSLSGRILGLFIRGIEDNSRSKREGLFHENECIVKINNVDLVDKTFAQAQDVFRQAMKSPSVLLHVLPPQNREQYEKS

T7: RADIL, Q96JH8
T7 sequence (Q96JH8 971-1071, limits assumed, looked up): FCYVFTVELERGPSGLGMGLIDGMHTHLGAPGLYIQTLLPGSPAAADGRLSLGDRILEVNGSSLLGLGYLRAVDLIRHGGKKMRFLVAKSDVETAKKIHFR

T8: SNTG1, Q9NSN8
T8 sequence (Q9NSN8 52-150, limits assumed, looked up): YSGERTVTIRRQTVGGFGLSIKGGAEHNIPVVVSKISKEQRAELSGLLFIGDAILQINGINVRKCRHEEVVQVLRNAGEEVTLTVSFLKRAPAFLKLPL

T9: SYNJ2BP, P57105
T9 sequence (P57105 8-110, limits assumed, looked up): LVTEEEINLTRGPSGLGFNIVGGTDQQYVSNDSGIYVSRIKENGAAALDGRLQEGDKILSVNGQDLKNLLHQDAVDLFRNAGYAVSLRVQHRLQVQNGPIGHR

T10: TJP3_3, O95049
T10 sequence (O95049 375-456, limits assumed, looked up): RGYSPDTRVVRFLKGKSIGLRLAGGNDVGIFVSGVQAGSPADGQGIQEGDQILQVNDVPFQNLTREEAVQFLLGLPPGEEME

T11: TX1BP3, O14907
T11 sequence (O14907 10-122, limits assumed, looked up): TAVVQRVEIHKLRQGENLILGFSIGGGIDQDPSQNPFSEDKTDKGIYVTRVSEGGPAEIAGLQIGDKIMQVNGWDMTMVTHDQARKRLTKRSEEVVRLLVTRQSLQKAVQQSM


Columns and labels:
Assay in all cases: holdup assay
Design in all cases: key: below the threshold = too weak to quantify, mostly under pKd 3.1 to 4
Conditions in all cases: plain residues with an end cap or a label only (N-terminal biotin on a linker: ado-ado)
[1] = biological target: T1, APBA3_1, O96018
[2] = biological target: CASK, O14936
[3] = biological target: T2, DFNB31_3, Q9P202
[4] = biological target: DLG2_2, Q15700
[5] = biological target: DLG2_3, Q15700
[6] = biological target: T3, DLG3_2, Q92796
[7] = biological target: DLG5_1, Q8TDM6
[8] = biological target: FRMPD2_1, Q68DX3
[9] = biological target: FRMPD3, Q5JV73
[10] = biological target: FRMPD4, Q14CM0
[11] = biological target: GORASP2, Q9H8Y8
[12] = biological target: GRIP2_5, Q9C0E4
[13] = biological target: IL16_3, Q14005
[14] = biological target: IL16_4, Q14005
[15] = biological target: Inadl_9, Q8NI35
[16] = biological target: T4, LIN7A, O14910
[17] = biological target: MAGI1_1, Q96QZ7
[18] = biological target: MAGI2_3, Q86UL8
[19] = biological target: MAGI2_6, Q86UL8
[20] = biological target: T5, NHERF3_1, Q5T2W1
[21] = biological target: NOS1, P29475
[22] = biological target: T6, PARD3B_1, Q8TEW8
[23] = biological target: T7, RADIL, Q96JH8
[24] = biological target: T8, SNTG1, Q9NSN8
[25] = biological target: T9, SYNJ2BP, P57105
[26] = biological target: T10, TJP3_3, O95049
[27] = biological target: T11, TX1BP3, O14907

Chain of DLG5_1, Q8TDM6 (Q8TDM6 617-713): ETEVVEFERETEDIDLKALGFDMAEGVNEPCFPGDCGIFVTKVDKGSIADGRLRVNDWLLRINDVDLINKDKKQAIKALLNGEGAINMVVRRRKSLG
Chain of FRMPD3, Q5JV73 (Q5JV73 12-100): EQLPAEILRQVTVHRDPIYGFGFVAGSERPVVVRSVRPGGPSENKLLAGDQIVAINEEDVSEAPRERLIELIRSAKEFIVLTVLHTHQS
Chain of FRMPD4, Q14CM0 (Q14CM0 67-160): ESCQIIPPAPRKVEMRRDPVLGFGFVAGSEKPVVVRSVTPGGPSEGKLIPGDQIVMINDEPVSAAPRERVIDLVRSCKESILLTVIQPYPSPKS
Chain of CASK, O14936 (O14936 487-570): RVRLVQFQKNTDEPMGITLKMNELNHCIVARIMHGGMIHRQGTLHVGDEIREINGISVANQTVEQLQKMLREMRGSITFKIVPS
Chain of FRMPD2_1, Q68DX3 (Q68DX3 770-861): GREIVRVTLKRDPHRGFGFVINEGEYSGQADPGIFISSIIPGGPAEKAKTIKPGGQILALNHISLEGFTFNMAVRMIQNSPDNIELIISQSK
Chain of IL16_3, Q14005 (Q14005 1107-1207): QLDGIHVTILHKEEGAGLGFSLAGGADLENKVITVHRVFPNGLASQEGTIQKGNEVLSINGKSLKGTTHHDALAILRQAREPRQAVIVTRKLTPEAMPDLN
Chain of GRIP2_5, Q9C0E4 (Q9C0E4 544-642): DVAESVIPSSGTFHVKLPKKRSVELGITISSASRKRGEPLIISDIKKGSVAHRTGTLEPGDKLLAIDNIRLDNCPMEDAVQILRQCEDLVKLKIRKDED
Chain of NOS1, P29475 (P29475 9-101): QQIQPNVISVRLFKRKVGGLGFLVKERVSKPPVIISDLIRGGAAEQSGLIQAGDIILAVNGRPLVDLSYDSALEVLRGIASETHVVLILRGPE
Chain of MAGI2_6, Q86UL8 (Q86UL8 1141-1229): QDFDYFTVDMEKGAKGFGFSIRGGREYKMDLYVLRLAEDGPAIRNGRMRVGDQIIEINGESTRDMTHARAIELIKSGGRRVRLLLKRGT
Chain of Inadl_9, Q8NI35 (Q8NI35 1530-1615): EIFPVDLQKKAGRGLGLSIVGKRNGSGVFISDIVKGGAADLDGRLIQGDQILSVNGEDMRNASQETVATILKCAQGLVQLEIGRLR
Chain of MAGI1_1, Q96QZ7 (Q96QZ7 1-106): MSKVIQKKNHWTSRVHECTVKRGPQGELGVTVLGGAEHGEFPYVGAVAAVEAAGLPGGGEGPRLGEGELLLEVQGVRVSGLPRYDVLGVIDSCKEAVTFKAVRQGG
Chain of IL16_4, Q14005 (Q14005 1229-1329): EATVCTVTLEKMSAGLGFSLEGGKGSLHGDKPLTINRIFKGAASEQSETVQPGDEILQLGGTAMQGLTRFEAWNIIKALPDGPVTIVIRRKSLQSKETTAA
Chain of MAGI2_3, Q86UL8 (Q86UL8 600-682): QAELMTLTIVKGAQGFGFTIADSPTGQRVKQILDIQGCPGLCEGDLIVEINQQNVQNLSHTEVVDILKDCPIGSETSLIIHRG

pKd [1] | pKd [2] | pKd [3] | pKd [4] | pKd [5] | pKd [6] | pKd [7] | pKd [8] | pKd [9] | pKd [10] | pKd [11] | pKd [12] | pKd [13] | pKd [14] | pKd [15] | pKd [16] | pKd [17] | pKd [18] | pKd [19] | pKd [20] | Binder | also measured
below the threshold | below the threshold | 3.72 | below the threshold | below the threshold | below the threshold | below the threshold | below the threshold | below the threshold | below the threshold | below the threshold | below the threshold | below the threshold | below the threshold | below the threshold | below the threshold | below the threshold | below the threshold | below the threshold | below the threshold | RALRASESGI [ADGRE5, P48960] | pKd [21]: below the threshold; pKd [22]: below the threshold; pKd [23]: below the threshold; pKd [24]: below the threshold; pKd [25]: 3.79; pKd [26]: below the threshold; pKd [27]: below the threshold
below the threshold | below the threshold | 3.89 | 4.87 | below the threshold | 4.89 | below the threshold | 3.56 | below the threshold | below the threshold | 4.64 | below the threshold | below the threshold | 3.67 | 4.06 | below the threshold | below the threshold | below the threshold | 3.86 | 4.02 | PMESGICTIV [TTC24, A2A3L6] | pKd [21]: 3.98; pKd [22]: 4.26; pKd [23]: 5.38; pKd [24]: 4.06; pKd [25]: 3.79; pKd [26]: below the threshold; pKd [27]: below the threshold
below the threshold | below the threshold | below the threshold | below the threshold | below the threshold | below the threshold | below the threshold | below the threshold | below the threshold | below the threshold | below the threshold | below the threshold | below the threshold | below the threshold | below the threshold | below the threshold | below the threshold | below the threshold | below the threshold | below the threshold | SRPRPDDLEI [GJA1, P17302] | pKd [21]: below the threshold; pKd [22]: below the threshold; pKd [23]: below the threshold; pKd [24]: below the threshold; pKd [25]: below the threshold; pKd [26]: below the threshold; pKd [27]: below the threshold
below the threshold | below the threshold | below the threshold | below the threshold | below the threshold | below the threshold | below the threshold | below the threshold | below the threshold | 4.21 | below the threshold | below the threshold | below the threshold | below the threshold | below the threshold | below the threshold | below the threshold | below the threshold | below the threshold | 3.98 | GCQGETEDVL [PTH2R, P49190] | pKd [21]: 3.67; pKd [22]: 4.05; pKd [23]: below the threshold; pKd [24]: below the threshold; pKd [25]: below the threshold; pKd [26]: below the threshold; pKd [27]: below the threshold
below the threshold | below the threshold | below the threshold | below the threshold | below the threshold | below the threshold | below the threshold | below the threshold | below the threshold | below the threshold | 3.51 | below the threshold | below the threshold | below the threshold | below the threshold | below the threshold | below the threshold | below the threshold | below the threshold | below the threshold | NVYGTESVKI [GRIA3, P42263] | pKd [21]: 3.56; pKd [22]: 4.8; pKd [23]: below the threshold; pKd [24]: below the threshold; pKd [25]: below the threshold; pKd [26]: below the threshold; pKd [27]: below the threshold
